# In the supplement of paper PMC10065799, “High-throughput profiling of sequence recognition by tyrosine kinases and SH2 domains using bacterial peptide display” (eLife, 2023):
# Columns and labels:
# [1] = test system: c-Abl (mouse); experiment: phosphorylation enrichment, bacterial display (enrichment ratio); higher = better substrate or ligand; peptides without Tyr show the background
# [2] = biological target: FGFR3 (UniProt P22607); experiment: as above
# [3] = biological target: Fyn (UniProt P06241); experiment: as above
# [4] = biological target: Fes (UniProt P07332); experiment: as above
# [5] = test system: Fer (mouse); experiment: as above
# [6] = biological target: FGFR1 (UniProt P11362); experiment: as above
# Chain of FGFR1 (P11362 whole entry, looked up): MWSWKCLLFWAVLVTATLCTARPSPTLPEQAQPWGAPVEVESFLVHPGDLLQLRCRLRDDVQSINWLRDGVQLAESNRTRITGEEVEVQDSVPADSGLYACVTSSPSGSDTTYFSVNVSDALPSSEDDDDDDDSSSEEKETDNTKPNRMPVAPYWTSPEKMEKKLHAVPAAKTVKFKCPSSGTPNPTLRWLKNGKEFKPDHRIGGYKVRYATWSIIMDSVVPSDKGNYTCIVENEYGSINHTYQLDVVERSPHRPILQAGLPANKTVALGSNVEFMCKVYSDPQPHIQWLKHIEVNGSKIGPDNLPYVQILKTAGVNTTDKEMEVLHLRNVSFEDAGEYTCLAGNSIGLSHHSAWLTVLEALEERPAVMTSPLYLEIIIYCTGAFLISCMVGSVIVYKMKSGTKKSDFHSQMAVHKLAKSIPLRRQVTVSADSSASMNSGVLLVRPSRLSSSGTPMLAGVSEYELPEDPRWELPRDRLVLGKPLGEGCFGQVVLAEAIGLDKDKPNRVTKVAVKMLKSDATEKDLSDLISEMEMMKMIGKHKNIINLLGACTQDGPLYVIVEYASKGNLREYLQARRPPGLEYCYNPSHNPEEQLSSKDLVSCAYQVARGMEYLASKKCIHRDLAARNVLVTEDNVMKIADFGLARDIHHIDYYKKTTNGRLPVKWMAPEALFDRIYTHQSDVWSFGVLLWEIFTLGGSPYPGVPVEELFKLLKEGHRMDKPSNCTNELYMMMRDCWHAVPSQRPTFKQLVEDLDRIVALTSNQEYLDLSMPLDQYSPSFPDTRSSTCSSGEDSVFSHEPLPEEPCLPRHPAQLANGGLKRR
# [7] = biological target: EPHB2 (UniProt P29323); experiment: as above
# Chain of EPHB2 (P29323 whole entry, looked up): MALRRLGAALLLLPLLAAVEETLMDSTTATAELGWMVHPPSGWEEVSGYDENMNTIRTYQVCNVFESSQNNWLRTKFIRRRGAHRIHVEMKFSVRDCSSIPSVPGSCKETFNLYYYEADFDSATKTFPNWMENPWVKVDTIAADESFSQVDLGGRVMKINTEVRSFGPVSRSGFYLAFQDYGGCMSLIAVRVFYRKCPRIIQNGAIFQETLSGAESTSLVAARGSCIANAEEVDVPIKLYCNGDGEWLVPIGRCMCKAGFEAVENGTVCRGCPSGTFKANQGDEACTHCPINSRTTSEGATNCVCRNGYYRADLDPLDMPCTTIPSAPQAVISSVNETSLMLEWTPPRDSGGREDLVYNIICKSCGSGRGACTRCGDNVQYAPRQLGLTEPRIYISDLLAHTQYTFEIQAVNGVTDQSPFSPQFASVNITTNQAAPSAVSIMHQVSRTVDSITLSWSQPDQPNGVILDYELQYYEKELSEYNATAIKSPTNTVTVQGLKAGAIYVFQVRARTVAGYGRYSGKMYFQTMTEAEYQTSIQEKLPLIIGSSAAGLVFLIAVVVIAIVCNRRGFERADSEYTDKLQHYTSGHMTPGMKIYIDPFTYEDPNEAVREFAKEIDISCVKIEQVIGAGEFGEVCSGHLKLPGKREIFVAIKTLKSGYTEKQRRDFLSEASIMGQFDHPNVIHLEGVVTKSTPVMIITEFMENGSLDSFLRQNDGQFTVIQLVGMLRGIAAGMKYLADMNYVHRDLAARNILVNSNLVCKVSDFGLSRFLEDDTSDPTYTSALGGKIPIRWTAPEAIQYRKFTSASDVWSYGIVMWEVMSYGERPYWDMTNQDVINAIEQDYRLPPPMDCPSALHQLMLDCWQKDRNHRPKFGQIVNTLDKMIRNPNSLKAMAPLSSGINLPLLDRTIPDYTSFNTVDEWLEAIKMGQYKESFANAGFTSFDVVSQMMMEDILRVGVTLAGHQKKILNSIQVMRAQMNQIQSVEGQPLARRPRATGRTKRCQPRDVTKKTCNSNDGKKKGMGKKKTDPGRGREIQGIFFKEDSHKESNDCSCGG
# [8] = biological target: Hck (UniProt P08631); experiment: as above
# [9] = test system: AncSZ; experiment: as above
# [10] = test system: c-Src; experiment: as above
# [11] = biological target: EPHB1 (UniProt P54762); experiment: as above
# Chain of EPHB1 (P54762 whole entry, looked up): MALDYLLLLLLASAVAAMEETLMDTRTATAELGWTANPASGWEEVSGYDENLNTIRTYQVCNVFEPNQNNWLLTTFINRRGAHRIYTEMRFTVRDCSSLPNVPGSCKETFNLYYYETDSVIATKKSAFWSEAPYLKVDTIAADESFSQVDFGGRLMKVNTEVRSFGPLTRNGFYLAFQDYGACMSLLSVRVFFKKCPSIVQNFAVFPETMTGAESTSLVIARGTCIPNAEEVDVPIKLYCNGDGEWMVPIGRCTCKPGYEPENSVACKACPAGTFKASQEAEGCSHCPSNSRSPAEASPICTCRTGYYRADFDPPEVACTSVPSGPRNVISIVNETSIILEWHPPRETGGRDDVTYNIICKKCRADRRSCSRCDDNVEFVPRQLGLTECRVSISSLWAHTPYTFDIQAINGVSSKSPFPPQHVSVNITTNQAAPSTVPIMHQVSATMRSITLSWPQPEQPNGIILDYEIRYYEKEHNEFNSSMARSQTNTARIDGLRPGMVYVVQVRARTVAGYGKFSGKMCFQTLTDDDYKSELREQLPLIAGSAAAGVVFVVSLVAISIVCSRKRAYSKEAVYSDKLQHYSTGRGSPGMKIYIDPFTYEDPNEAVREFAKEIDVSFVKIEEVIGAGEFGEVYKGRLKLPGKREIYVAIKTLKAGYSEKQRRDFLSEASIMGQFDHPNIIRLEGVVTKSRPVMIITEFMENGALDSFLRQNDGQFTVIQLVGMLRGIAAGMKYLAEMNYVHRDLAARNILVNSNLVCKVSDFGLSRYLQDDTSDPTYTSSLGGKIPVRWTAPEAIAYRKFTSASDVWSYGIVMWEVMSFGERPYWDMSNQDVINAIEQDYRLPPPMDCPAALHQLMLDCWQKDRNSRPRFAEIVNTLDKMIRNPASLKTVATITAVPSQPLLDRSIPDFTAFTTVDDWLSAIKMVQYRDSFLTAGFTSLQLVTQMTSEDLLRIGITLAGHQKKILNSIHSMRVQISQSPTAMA
# [12] = biological target: MERTK (UniProt Q12866); experiment: as above
# [13] = biological target: Jak2 (UniProt O60674); experiment: as above
# Chain of Jak2 (O60674 whole entry, looked up): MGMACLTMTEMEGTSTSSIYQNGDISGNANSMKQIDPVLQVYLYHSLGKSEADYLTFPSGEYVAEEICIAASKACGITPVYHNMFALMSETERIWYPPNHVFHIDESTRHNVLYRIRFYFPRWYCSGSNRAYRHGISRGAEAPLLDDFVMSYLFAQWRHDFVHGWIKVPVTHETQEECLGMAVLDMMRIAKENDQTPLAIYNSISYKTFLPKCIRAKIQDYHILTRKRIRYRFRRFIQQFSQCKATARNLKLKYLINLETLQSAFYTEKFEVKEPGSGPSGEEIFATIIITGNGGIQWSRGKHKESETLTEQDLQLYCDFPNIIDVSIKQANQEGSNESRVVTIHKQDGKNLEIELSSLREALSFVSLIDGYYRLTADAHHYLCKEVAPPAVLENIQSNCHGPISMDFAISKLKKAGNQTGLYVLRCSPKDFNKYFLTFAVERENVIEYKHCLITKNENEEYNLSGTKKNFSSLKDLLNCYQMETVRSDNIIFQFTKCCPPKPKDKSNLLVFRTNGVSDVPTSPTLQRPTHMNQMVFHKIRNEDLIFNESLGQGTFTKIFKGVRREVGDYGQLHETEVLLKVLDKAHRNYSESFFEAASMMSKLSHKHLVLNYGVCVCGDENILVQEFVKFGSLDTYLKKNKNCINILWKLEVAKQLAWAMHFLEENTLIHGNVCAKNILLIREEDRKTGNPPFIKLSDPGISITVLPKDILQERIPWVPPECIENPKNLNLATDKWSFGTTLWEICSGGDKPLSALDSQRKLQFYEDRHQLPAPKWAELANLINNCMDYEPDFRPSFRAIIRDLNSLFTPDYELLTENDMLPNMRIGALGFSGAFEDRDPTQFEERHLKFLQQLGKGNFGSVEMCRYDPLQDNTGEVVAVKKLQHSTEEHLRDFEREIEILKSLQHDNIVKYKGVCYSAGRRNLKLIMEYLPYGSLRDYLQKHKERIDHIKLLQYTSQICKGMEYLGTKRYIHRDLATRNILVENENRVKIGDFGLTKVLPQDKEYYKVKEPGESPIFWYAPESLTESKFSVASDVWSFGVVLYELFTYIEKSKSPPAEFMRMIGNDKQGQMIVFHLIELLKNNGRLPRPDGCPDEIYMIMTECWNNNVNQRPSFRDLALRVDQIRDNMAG
# [14] = biological target: c-Src SH2; experiment: SH2 binding enrichment of the phosphorylated peptide, bacterial display (enrichment ratio); higher = better substrate or ligand; peptides without Tyr show the background
# [15] = biological target: Grb2 SH2 (UniProt P62993); experiment: as above
# [16] = biological target: SHP2-C SH2; experiment: as above
# 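Throughout, for SH2 binding enrichment of the phosphorylated peptide, bacterial display: peptide library displayed on the E. coli surface as eCPX fusions, selected cells deep-sequenced, score is each peptide's frequency after selection divided by its frequency in the input.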
# 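Throughout, for phosphorylation enrichment, bacterial display: 11-residue human phosphosite peptides and single-mutation variants displayed on the E. coli surface, counted by deep sequencing, each peptide's frequency after selection divided by its frequency in the unselected input library; frequency after pTyr selection over input frequency; kinase dosed for 20-30% of maximal phosphorylation in three min.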
# Chain of FGFR3 (P22607 whole entry, looked up): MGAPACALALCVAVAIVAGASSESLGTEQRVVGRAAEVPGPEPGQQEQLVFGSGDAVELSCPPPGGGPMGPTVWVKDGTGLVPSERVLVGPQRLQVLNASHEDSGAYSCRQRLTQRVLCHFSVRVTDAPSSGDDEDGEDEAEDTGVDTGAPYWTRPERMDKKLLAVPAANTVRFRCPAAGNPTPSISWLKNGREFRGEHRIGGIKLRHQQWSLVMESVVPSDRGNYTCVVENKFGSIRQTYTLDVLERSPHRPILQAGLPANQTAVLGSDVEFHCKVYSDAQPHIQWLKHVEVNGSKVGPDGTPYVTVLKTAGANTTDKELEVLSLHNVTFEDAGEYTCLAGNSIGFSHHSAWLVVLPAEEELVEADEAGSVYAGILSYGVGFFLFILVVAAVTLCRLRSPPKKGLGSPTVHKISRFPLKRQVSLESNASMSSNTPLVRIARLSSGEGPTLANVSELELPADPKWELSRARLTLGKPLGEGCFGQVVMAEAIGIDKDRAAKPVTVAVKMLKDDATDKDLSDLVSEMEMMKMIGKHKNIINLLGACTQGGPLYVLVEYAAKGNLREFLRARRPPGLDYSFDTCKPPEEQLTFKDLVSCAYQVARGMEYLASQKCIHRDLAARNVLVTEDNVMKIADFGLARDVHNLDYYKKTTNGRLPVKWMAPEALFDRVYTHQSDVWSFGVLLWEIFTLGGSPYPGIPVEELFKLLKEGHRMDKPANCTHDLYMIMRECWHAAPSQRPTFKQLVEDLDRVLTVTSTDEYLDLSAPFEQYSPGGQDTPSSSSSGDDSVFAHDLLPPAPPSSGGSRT
Sequence,SH2 binding enrichment [14],SH2 binding enrichment [15],SH2 binding enrichment [16],phosphorylation enrichment [1],phosphorylation enrichment [2],phosphorylation enrichment [3],phosphorylation enrichment [4],phosphorylation enrichment [5],phosphorylation enrichment [6],phosphorylation enrichment [7],phosphorylation enrichment [8],phosphorylation enrichment [9],phosphorylation enrichment [10],phosphorylation enrichment [11],phosphorylation enrichment [12],phosphorylation enrichment [13]
FHKALYTVRTF [PDE6C_Y266_S270T_YF],0.536,0.853,0.722,0.838,0.691,0.581,1.02,0.427,0.582,0.529,0.67,0.914,0.729,0.567,0.523,0.907
SAVTGYRVNVI [FN1_Y937_D940N],0.505,0.95,0.823,0.415,0.488,0.403,0.752,0.434,0.391,0.407,0.399,0.633,0.386,0.407,0.359,0.634
GVRFTYTIDGS [DCX_Y105_I104T_YF],0.475,0.87,0.545,0.715,0.729,0.426,1.33,0.384,0.601,0.67,0.496,1.26,0.435,0.458,0.423,1.24
LHSEAYLKYIE [PBRM1_Y1610],0.443,0.664,0.445,0.9,0.743,0.831,0.994,0.665,0.633,1.2,0.684,1.16,0.941,0.753,0.678,1.55
PGLSSYGVPAS [FLNB_Y1530],0.545,0.898,0.658,0.913,0.526,0.661,0.738,0.408,0.56,0.435,0.482,0.677,0.474,0.543,0.497,0.599
LKLKAYRFSIS [LCT_Y974_V971L],0.502,0.673,0.763,2.51,1.21,0.746,1.96,1.26,0.845,0.948,0.882,1.76,1.55,0.883,1.15,2.76
IHKEFYDGLFP [BCR_Y561],0.913,0.946,0.77,0.864,0.853,0.57,1.27,0.699,0.606,0.743,1.17,1.08,0.878,0.802,0.823,1.06
GSSSSCGQHGS [HRNR_Y517_Y517C],0.553,0.982,0.875,0.411,0.522,0.4,0.622,0.38,0.363,0.311,0.333,0.556,0.283,0.342,0.294,0.448

# Continued, in another order:
SH2 binding enrichment [14],SH2 binding enrichment [15],SH2 binding enrichment [16],Sequence,phosphorylation enrichment [1],phosphorylation enrichment [2],phosphorylation enrichment [3],phosphorylation enrichment [4],phosphorylation enrichment [5],phosphorylation enrichment [6],phosphorylation enrichment [7],phosphorylation enrichment [8],phosphorylation enrichment [9],phosphorylation enrichment [10],phosphorylation enrichment [11],phosphorylation enrichment [12],phosphorylation enrichment [13]
1.16,1.13,0.908,MCDKEYYSVHN [MET_Y1234_Y1230C],0.566,3.33,0.684,0.862,0.594,5.1,0.865,0.734,1.79,1.02,0.625,0.478,1.31
0.507,0.848,0.707,KNDSIYVVKGN [KIT_Y823_N822I],0.47,0.469,0.786,0.647,0.47,0.39,0.689,1.35,0.574,0.922,0.339,0.443,0.516
0.433,0.655,0.576,ALTRSYIREKV [CYP2C8_Y243],0.417,0.367,0.422,0.596,0.43,0.423,0.316,0.4,0.524,0.419,0.388,0.369,0.445
1.16,1.29,1.16,QFKGKYLAKHN [CASK_Y712_D710G_YF],0.467,0.327,0.415,0.616,0.441,0.498,0.527,0.376,1.2,0.404,0.49,0.632,0.855
0.442,0.671,0.488,TPGPNYRPGYN [USH2A_Y463],0.404,0.676,0.432,0.549,0.294,0.232,0.542,0.346,0.562,0.309,0.39,0.487,0.597
0.709,0.89,1.01,TKAEKYVNKAK [PLCG1_Y991],0.92,0.523,0.295,0.671,0.403,0.387,0.293,0.343,0.503,0.443,0.264,0.365,0.557
0.444,0.812,0.527,FDEFRYRSVIK [CFTR_Y517_YF],0.544,0.484,0.41,0.804,0.409,0.466,0.472,0.498,0.768,0.46,0.39,0.463,0.607
0.63,0.802,0.488,PADQAYSWYQH [NDST1_Y711_R709Q],0.6,3.15,1.17,1.57,20.6,5.18,0.674,1.37,1.55,1.58,0.755,3.75,0.765
0.77,0.774,0.697,IAAEFYDNLPH [DEGS1_Y284_YF],0.535,0.682,0.72,0.79,1.12,0.66,0.68,3.88,0.894,0.723,0.531,0.687,0.559
